Assay results as given in patent US20230105029A1 (CHIA TAI TIANQING PHARMACEUTICAL GROUP, published 2023).

Key:
[1] = biological target: T1, recombinant human IL4Rα-his protein (in house made) (human, UniProt P24394 26-232, limits assumed); test: capture ELISA, biotin-IL4Rα-his
T1 construct: also called Human IL4Ra-his

[2] = biological target: human IL4Rα expressed on HEK293T-IL4Rα-STAT6-STAT6LUC-LB2 cells (human, UniProt P24394 26-825); test: cell-based or functional assay
[3] = biological target: T1, recombinant human IL4Rα-his protein (in …); test: competitive ELISA: antibody mixed with biotin human IL4Rα-his, competitor plate-coated Benchmark
Experimental: (§1) The ability of the anti-IL4Rα antibodies of the disclosure to block benchmark-human IL4Rα binding was measured in a competitive ELISA assay. Briefly, the benchmark was coated on 96-well micro plates at 2 μg/mL in PBS, 100 μl per well, and incubated overnight at 4° C. The next day, plates were washed with wash buffer (PBS+0.05% w/v Tween-20, PBST), and blocked with 5% w/v non-fatty milk in PBST for 2 hours at 37° C. tiring plate blocking, the anti-IL4Rα antibodies of the disclosure or controls were diluted with biotin labeled human IL4Rα-his proteins (prepared in-house with SEQ ID NO: 57, 0.55 nM in 2.5% w/v non-fatty milk in PBST), starting at 100 nM with a 4-fold serial dilution, and incubated at 25° C. for 40 minutes. After plate washing, the antibody/IL4Rα-his mixtures were added to benchmark coated plates, 100 μl per well. After incubation at 37° C. for 40 minutes, plates were washed using wash buffer. Then the plates were added and incubated with 100 μl/well streptavidin conjugated HRP for 40 minutes at 37° C. to detect biotin-labeled human IL4Rα-his bound to plates. Plates were washed again using wash buffer. Finally, TMB was added and the reaction was stopped using 1M H₂SO₄, and the absorbance was read at 450 nm. Data was analyzed using Graphpad Prism software and IC₅₀ values were reported.

[4] = biological target: T1, recombinant human IL4Rα-his protein (in …); test: SPR (Biacore), antibody captured, IL4Rα-his flowed
[5] = biological target: T1, recombinant human IL4Rα-his protein (in …); test: competitive ELISA, blocks biotin-IL4Rα-his binding to coated Benchmark (competitor)
Experimental: as §1

[6] = biological target: T1, recombinant human IL4Rα-his protein (in …); test: capture ELISA: antibody captured on anti-IgG Fc plate, biotin human IL4Rα-his detected
Experimental: Plates were washed once with wash buffer (PBS+0.05% w/v Tween-20, PBST) and then blocked with 200 μl/well blocking buffer (5% w/v non-fatty milk in PBST) for 2 hours at 37° C. Plates were washed again and incubated with 100 μl/well serially diluted anti-IL4Rα antibodies of the disclosure, the benchmark or negative control hIgG (human immunoglobulin (pH4) for intravenous injection, Hualan Biological Engineering Inc.) (5-fold dilution in 2.5% w/v non-fatty milk in PBST, starting at 66.7 nM) for 40 minutes at 37° C., and then washed 4 times again. Plates containing captured anti-IL4Rα antibodies were incubated with biotin-labeled human IL4Rα-his protein (in house made with SEQ ID NO: 57, 0.14 nM in 2.5% w/v non-fatty milk in PBST, 100 μl/well) for 40 minutes at 37° C., washed 4 times, and incubated with streptavidin conjugated HRP (1:10000 dilution in PBST, Jackson Immuno Research, Cat #016-030-084, 100 μl/well) for 40 minutes at 37° C. After a final wash, plates were incubated with 100 μl/well ELISA substrate TMB (Innoreagents, Cat #TMB-S-002). The reaction was stopped in 10 minutes at 25° C. with 50 μl/well 1M H₂SO₄, and the absorbance was read at 450 nm. Data was analyzed using Graphpad Prism software and EC₅₀ values were reported.
For the capture ELISA, 96-well micro plates were coated with 2 μg/ml goat anti-human IgG (AffiniPure Goat Anti-Human IgG, Fcγ fragment specific, Jackson Immunoresearch, Cat #109-005-098) instead of goat anti-mouse IgG Fey fragment, 100 μl/well.

[7] = biological target: T1, recombinant human IL4Rα-his protein (in …); test: competitive ELISA, blocks biotin-IL4 binding to coated IL4Rα-his
Experimental: (§2) Serially diluted anti-IL4Rα antibodies or the controls (starting at 80 nM with a 4-fold serial dilution) in 2.5% w/v non-fatty milk in PBST, 100 μl per well, were added to the IL4Rα bound plates, and incubated with the human IL4Rα-his proteins at 37° C. for 40 minutes. Plates were washed 4 times using wash buffer, and then added and incubated for 40 minutes at 37° C. with 100 μl/well of 0.56 nM biotin-labeled human IL4 protein (Sino biological inc., Cat #11846-HNAE). Plates were washed again using wash buffer. Thereafter, the plates were added with 100 μl/well of streptavidin conjugated HRP (1:10000 dilution in PBST buffer, Jackson Immunoresearch, Cat #016-030-084) and incubated for 40 minutes at 37° C. Plates were washed again using wash buffer. Finally, TMB was added and the reaction was stopped using 1M H₂SO₄, and the absorbance was read at 450 nm. Data was analyzed using Graphpad Prism software and IC₅₀ values were reported.

[8] = biological target: T1, recombinant human IL4Rα-his protein (in …); test: competitive ELISA: coated human IL4Rα-his, blocked ligand biotin human IL4
Experimental: The activity of the anti-IL4Rα antibodies of the disclosure to block IL4-IL4Rα interaction was measured in a competitive ELISA assay. Briefly, 100 μl human IL4Rα-his proteins (prepared in-house with SEQ ID NO: 57) were coated on 96-well micro plates at 2 μg/mL in PBS overnight at 4° C. The next day, plates were washed with wash buffer (PBS+0.05% w/v Tween-20, PBST), and blocked with 5% w/v non-fatty milk in PBST for 2 hours at 37° C. Plates were then washed again using wash buffer.
as §2

B1: mouse antibody B8G11F2B7G5E8 (antibody, V domains shown)
VH: EVQLQQSGADLVRPGASVKLSCTASGFNIKDTYMHWVKQRPEQGLEWVGRIDPTNGYTIYASKFQGKATITADTSSNTAYMQLSSLTSGDTAVYHCVSRRPWFAYWGQGTLVTVSA
VL: DILMTQTPLSLPVSLGAQASISCRSSQSIVHSNGNTYLEWYLQKPGQSPKLLIYKVTNRFSGVPDRFSGSGSGTDFTLKISRVEAEDLGIYYCFQGSHVPYTFGGGTKLEIK
notes: Mouse hybridoma mAb; also called Mouse B8G11F2B7G5E8; mAb B8G11F2B7G5E8
EC50 [1]: 0.21 nM
Inhibition on IL4 induced STAT6 phosphorylation (IC50, nM) [2]: 0.23 nM
Inhibition on IL13 induced STAT6 phosphorylation (IC50, nM) [2]: 0.47 nM
IC50 [3]: 0.0171 nM
Kd [4]: 2.98 nM
IC50 [5]: 0.02 nM
EC50 [6]: 0.143 nM
IC50 [7]: 1 nM
IC50 [8]: 0.81 nM

B2: chimeric antibody B8G11F2B7G5E8 (antibody, human IgG4 S228P, kappa, V domains shown)
VH: EVQLQQSGADLVRPGASVKLSCTASGFNIKDTYMHWVKQRPEQGLEWVGRIDPTNGYTIYASKFQGKATITADTSSNTAYMQLSSLTSGDTAVYHCVSRRPWFAYWGQGTLVTVSA
VL: DILMTQTPLSLPVSLGAQASISCRSSQSIVHSNGNTYLEWYLQKPGQSPKLLIYKVTNRFSGVPDRFSGSGSGTDFTLKISRVEAEDLGIYYCFQGSHVPYTFGGGTKLEIKR
notes: Mouse variable domains on human IgG4/kappa; also called Chimeric B8G11F2B7G5E8; chB8G11F2B7G5E8
EC50 [1]: 0.32 nM
Kd [4]: 2.99 nM
IC50 [5]: 1.52 nM
EC50 [6]: 0.275 nM
IC50 [7]: 1.42 nM

B3: mouse antibody B1D2F7D3B5 (antibody, V domains shown)
VH: EVKLVESGGGLVKPGGSLKLSCAASGFTFSSYAMSWVRQTPEKRLEWVASISSGDSTYYLDSVKGRFTISRDNAMNILYLQMSSLRSEDTAVYYCERSGGSAPYWGQGTLVSVSA
VL: QIVLTQSPAIMSASPGEMVTISCSASSSVSYMYWYQQKPGSSPKPWIYRTSNLASGVPARFSGSGSGTSYSLTISSMEAEDAATYYCQQYHSFPLTFGAGTKLELK
notes: Mouse hybridoma mAb
Inhibition on IL4 induced STAT6 phosphorylation (IC50, nM) [2]: 0.17 nM
Inhibition on IL13 induced STAT6 phosphorylation (IC50, nM) [2]: 0.48 nM
IC50 [3]: 0.024 nM
IC50 [5]: 0.02 nM
IC50 [8]: 1.8 nM

B4: mouse antibody B9D1D11F8D8 (antibody, V domains shown)
VH: EVKLVESGGGLVKPGGSLKLSCAASGFTFSSYAMSWVRQTPEKRLEWVASISSGDSTYYLDSVKGRFTISRDNARNILYLQVSSLRSEDTAMYYCERSGGSAPYWGQGTLVTVSA
VL: QIVLTQSPAIMSASPGDMVTISCSASSSVNYMYWYQQKPGSSPKPWIYRTSNLASGVPARFSGSGSGTSYSLTISSMEAEDAATYYCQQYHSFPLTFGAGTKLELK
notes: Mouse hybridoma mAb
Inhibition on IL4 induced STAT6 phosphorylation (IC50, nM) [2]: 0.23 nM
Inhibition on IL13 induced STAT6 phosphorylation (IC50, nM) [2]: 0.36 nM
IC50 [3]: 0.0209 nM
IC50 [5]: 0.02 nM
IC50 [8]: 2.88 nM

B5: mouse antibody C2C1A1A1 (antibody, V domains shown)
VH: EVQLVESGGGLVQPGGSLKLSCAASGFTFSTYGMSWVRQTPDKRLELVATINSNGGSTSYPDSVKGRFTISRDNAKNTLYLQMSSLKSEDTAMFYCARFFRFRNAMDYWGQGTSVTVSS
VL: DIQMTQSPASLSASVGETVTITCRTSENIYSYLAWYQQKQGKSPQFLVYNAKTLAEGVPSRFSGSGSGTQFSLNINSLQSEDFGSYYCQHYYGPPTWTFGGGTKLEIK
notes: Mouse hybridoma mAb; also called Mouse C2C1A1A1
Inhibition on IL4 induced STAT6 phosphorylation (IC50, nM) [2]: 0.16 nM
Inhibition on IL13 induced STAT6 phosphorylation (IC50, nM) [2]: 0.23 nM
IC50 [3]: 0.0383 nM
Kd [4]: 0.119 nM
IC50 [5]: 0.04 nM
EC50 [6]: 0.0262 nM
IC50 [8]: 0.812 nM

B6: chimeric antibody C2C1A1A1 (antibody, human IgG4 S228P, kappa, V domains shown)
VH: EVQLVESGGGLVQPGGSLKLSCAASGFTFSTYGMSWVRQTPDKRLELVATINSNGGSTSYPDSVKGRFTISRDNAKNTLYLQMSSLKSEDTAMFYCARFFRFRNAMDYWGQGTSVTVSS
VL: DIQMTQSPASLSASVGETVTITCRTSENIYSYLAWYQQKQGKSPQFLVYNAKTLAEGVPSRFSGSGSGTQFSLNINSLQSEDFGSYYCQHYYGPPTWTFGGGTKLEIKR
notes: Mouse variable domains on human IgG4/kappa; also called Chimeric C2C1A1A1; chC2C1A1A1
EC50 [1]: 0.05 nM
Kd [4]: 0.522 nM
IC50 [5]: 0.17 nM
EC50 [6]: 0.0549 nM
IC50 [7]: 2.46 nM

B7: mouse antibody C2B2F7B7 (antibody, V domains shown)
VH: EVQLVESGGGLVQPGGSLKLSCAASGFTFSTYGMSWVRQTPDKRLELVATINSNGGSTNYPDSVKGRFTISRDNAKNTLYLQMSSLKSEDTAMYYCARFFRIRNAMDYWGQGTSVTVSS
VL: DIQMTQSPASLSASVGETVTITCRASENIYSYLAWYQQKQGKSPQFLVYNAKTLAEGVPSRFSGSGSGTQFSLKINSLQPEDFGSYYCQHYYGTPTWTFGGGTKLEIK
notes: Mouse hybridoma mAb
Inhibition on IL4 induced STAT6 phosphorylation (IC50, nM) [2]: 0.17 nM
Inhibition on IL13 induced STAT6 phosphorylation (IC50, nM) [2]: 0.31 nM
IC50 [3]: 0.716 nM
IC50 [5]: 0.72 nM
IC50 [8]: 0.726 nM
